Among the data in paper doi:10.1101/2025.10.25.684501 are Kd values, retold here.

The assay concerns the target reconstituted silk fibroin (RSF) labelled with DyLight 650 (Bombyx mori) (UniProt P05790). The assay can be described thus: MST.

In turn, “wild-type (WT) α-synuclein (from UniProt P37840 1-140) (natural protein)” displayed a Kd of 24 nM.

A word on the Kd: it is a measure of binding affinity in units of concentration. Higher therefore signals lower affinity.
